Measured values published in US20140206609A1 (Sanofi, published 2014).
*1 amine or outer side, *2 acyl side, *3 side chain or, on linkers, in order; H or OH if unused. Where no end group is shown, it is not given here. Side-chain parts run from the residue outwards. [ ]: non-standard residue; d: D form. The star is where a group is joined. henicosanoyl = CCCCCCCCCCCCCCCCCCCCC(=O)*; γGlu = O=C(O)[C@H](CCC(=O)[*:2])N[*:1]; Stearoyl = CCCCCCCCCCCCCCCCCC(=O)*; Palmitoyl = CCCCCCCCCCCCCCCC(=O)*; Aib = CC(C)(N)C(=O)O; GABA = NCCCC(=O)O

T1: human GIP receptor (human, UniProt P48546 22-466)
T1 sequence (looked up): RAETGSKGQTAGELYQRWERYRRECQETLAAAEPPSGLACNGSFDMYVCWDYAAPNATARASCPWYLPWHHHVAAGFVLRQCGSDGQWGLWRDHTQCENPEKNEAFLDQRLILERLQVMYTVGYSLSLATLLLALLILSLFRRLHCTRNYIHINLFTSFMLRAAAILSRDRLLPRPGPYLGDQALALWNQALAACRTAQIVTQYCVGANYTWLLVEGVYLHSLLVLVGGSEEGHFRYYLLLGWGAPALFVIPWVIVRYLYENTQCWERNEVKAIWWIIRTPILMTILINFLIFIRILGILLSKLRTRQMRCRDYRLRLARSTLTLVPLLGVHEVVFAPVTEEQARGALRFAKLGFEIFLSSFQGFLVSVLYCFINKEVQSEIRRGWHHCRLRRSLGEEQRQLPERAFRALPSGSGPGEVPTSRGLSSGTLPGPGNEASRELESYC

B1: SEQ ID NO: 17 (peptide)
peptide: Y[Aib]EGTFTSDLSIQK([GABA-Stearoyl])EKRAA[Aib]EFIEWLKNTGPSSGAPPPS-NH2
modifications: N-terminus assumed
SMILES: CCCCCCCCCCCCCCCCCC(=O)NCCCC(=O)NCCCC[C@H](NC(=O)[C@H](CCC(N)=O)NC(=O)[C@@H](NC(=O)[C@H](CO)NC(=O)[C@H](CC(C)C)NC(=O)[C@H](CC(=O)O)NC(=O)[C@H](CO)NC(=O)[C@@H](NC(=O)[C@H](Cc1ccccc1)NC(=O)[C@@H](NC(=O)CNC(=O)[C@H](CCC(=O)O)NC(=O)C(C)(C)NC(=O)[C@@H](N)Cc1ccc(O)cc1)[C@@H](C)O)[C@@H](C)O)[C@@H](C)CC)C(=O)N[C@@H](CCC(=O)O)C(=O)N[C@@H](CCCCN)C(=O)N[C@@H](CCCNC(=N)N)C(=O)N[C@@H](C)C(=O)N[C@@H](C)C(=O)NC(C)(C)C(=O)N[C@@H](CCC(=O)O)C(=O)N[C@@H](Cc1ccccc1)C(=O)N[C@H](C(=O)N[C@@H](CCC(=O)O)C(=O)N[C@@H](Cc1c[nH]c2ccccc12)C(=O)N[C@@H](CC(C)C)C(=O)N[C@@H](CCCCN)C(=O)N[C@@H](CC(N)=O)C(=O)N[C@H](C(=O)NCC(=O)N1CCC[C@H]1C(=O)N[C@@H](CO)C(=O)N[C@@H](CO)C(=O)NCC(=O)N[C@@H](C)C(=O)N1CCC[C@H]1C(=O)N1CCC[C@H]1C(=O)N1CCC[C@H]1C(=O)N[C@@H](CO)C(N)=O)[C@@H](C)O)[C@@H](C)CC
B2: SEQ ID NO: 19 (peptide)
peptide: Y[Aib]EGTFTSDLSIQK([γGlu-Stearoyl])EKRAAQEFIEWLKNTGPSSGAPPPS-NH2
modifications: N-terminus assumed
SMILES: CCCCCCCCCCCCCCCCCC(=O)N[C@@H](CCC(=O)NCCCC[C@H](NC(=O)[C@H](CCC(N)=O)NC(=O)[C@@H](NC(=O)[C@H](CO)NC(=O)[C@H](CC(C)C)NC(=O)[C@H](CC(=O)O)NC(=O)[C@H](CO)NC(=O)[C@@H](NC(=O)[C@H](Cc1ccccc1)NC(=O)[C@@H](NC(=O)CNC(=O)[C@H](CCC(=O)O)NC(=O)C(C)(C)NC(=O)[C@@H](N)Cc1ccc(O)cc1)[C@@H](C)O)[C@@H](C)O)[C@@H](C)CC)C(=O)N[C@@H](CCC(=O)O)C(=O)N[C@@H](CCCCN)C(=O)N[C@@H](CCCNC(=N)N)C(=O)N[C@@H](C)C(=O)N[C@@H](C)C(=O)N[C@@H](CCC(N)=O)C(=O)N[C@@H](CCC(=O)O)C(=O)N[C@@H](Cc1ccccc1)C(=O)N[C@H](C(=O)N[C@@H](CCC(=O)O)C(=O)N[C@@H](Cc1c[nH]c2ccccc12)C(=O)N[C@@H](CC(C)C)C(=O)N[C@@H](CCCCN)C(=O)N[C@@H](CC(N)=O)C(=O)N[C@H](C(=O)NCC(=O)N1CCC[C@H]1C(=O)N[C@@H](CO)C(=O)N[C@@H](CO)C(=O)NCC(=O)N[C@@H](C)C(=O)N1CCC[C@H]1C(=O)N1CCC[C@H]1C(=O)N1CCC[C@H]1C(=O)N[C@@H](CO)C(N)=O)[C@@H](C)O)[C@@H](C)CC)C(=O)O
B3: SEQ ID NO: 20 (peptide)
peptide: Y[Aib]EGTFTSDLSIQK([γGlu-henicosanoyl])EKRAA[Aib]EFIEWLKNTGPSSGAPPPS-NH2
modifications: N-terminus assumed
SMILES: CCCCCCCCCCCCCCCCCCCCC(=O)N[C@@H](CCC(=O)NCCCC[C@H](NC(=O)[C@H](CCC(N)=O)NC(=O)[C@@H](NC(=O)[C@H](CO)NC(=O)[C@H](CC(C)C)NC(=O)[C@H](CC(=O)O)NC(=O)[C@H](CO)NC(=O)[C@@H](NC(=O)[C@H](Cc1ccccc1)NC(=O)[C@@H](NC(=O)CNC(=O)[C@H](CCC(=O)O)NC(=O)C(C)(C)NC(=O)[C@@H](N)Cc1ccc(O)cc1)[C@@H](C)O)[C@@H](C)O)[C@@H](C)CC)C(=O)N[C@@H](CCC(=O)O)C(=O)N[C@@H](CCCCN)C(=O)N[C@@H](CCCNC(=N)N)C(=O)N[C@@H](C)C(=O)N[C@@H](C)C(=O)NC(C)(C)C(=O)N[C@@H](CCC(=O)O)C(=O)N[C@@H](Cc1ccccc1)C(=O)N[C@H](C(=O)N[C@@H](CCC(=O)O)C(=O)N[C@@H](Cc1c[nH]c2ccccc12)C(=O)N[C@@H](CC(C)C)C(=O)N[C@@H](CCCCN)C(=O)N[C@@H](CC(N)=O)C(=O)N[C@H](C(=O)NCC(=O)N1CCC[C@H]1C(=O)N[C@@H](CO)C(=O)N[C@@H](CO)C(=O)NCC(=O)N[C@@H](C)C(=O)N1CCC[C@H]1C(=O)N1CCC[C@H]1C(=O)N1CCC[C@H]1C(=O)N[C@@H](CO)C(N)=O)[C@@H](C)O)[C@@H](C)CC)C(=O)O
B4: SEQ ID NO: 21 (peptide)
peptide: Y[Aib]EGTFTSDLSIQK([γGlu-Stearoyl])ESRAAQEFIEWLKAGGPSSGAPPPS-NH2
modifications: N-terminus assumed
SMILES: CCCCCCCCCCCCCCCCCC(=O)N[C@@H](CCC(=O)NCCCC[C@H](NC(=O)[C@H](CCC(N)=O)NC(=O)[C@@H](NC(=O)[C@H](CO)NC(=O)[C@H](CC(C)C)NC(=O)[C@H](CC(=O)O)NC(=O)[C@H](CO)NC(=O)[C@@H](NC(=O)[C@H](Cc1ccccc1)NC(=O)[C@@H](NC(=O)CNC(=O)[C@H](CCC(=O)O)NC(=O)C(C)(C)NC(=O)[C@@H](N)Cc1ccc(O)cc1)[C@@H](C)O)[C@@H](C)O)[C@@H](C)CC)C(=O)N[C@@H](CCC(=O)O)C(=O)N[C@@H](CO)C(=O)N[C@@H](CCCNC(=N)N)C(=O)N[C@@H](C)C(=O)N[C@@H](C)C(=O)N[C@@H](CCC(N)=O)C(=O)N[C@@H](CCC(=O)O)C(=O)N[C@@H](Cc1ccccc1)C(=O)N[C@H](C(=O)N[C@@H](CCC(=O)O)C(=O)N[C@@H](Cc1c[nH]c2ccccc12)C(=O)N[C@@H](CC(C)C)C(=O)N[C@@H](CCCCN)C(=O)N[C@@H](C)C(=O)NCC(=O)NCC(=O)N1CCC[C@H]1C(=O)N[C@@H](CO)C(=O)N[C@@H](CO)C(=O)NCC(=O)N[C@@H](C)C(=O)N1CCC[C@H]1C(=O)N1CCC[C@H]1C(=O)N1CCC[C@H]1C(=O)N[C@@H](CO)C(N)=O)[C@@H](C)CC)C(=O)O
B5: SEQ ID NO: 22 (peptide)
peptide: Y[Aib]EGTFTSDLSIQK([γGlu-Palmitoyl])DSRAAQDFIEWLKAGGPSSGAPPPS-NH2
modifications: N-terminus assumed
SMILES: CCCCCCCCCCCCCCCC(=O)N[C@@H](CCC(=O)NCCCC[C@H](NC(=O)[C@H](CCC(N)=O)NC(=O)[C@@H](NC(=O)[C@H](CO)NC(=O)[C@H](CC(C)C)NC(=O)[C@H](CC(=O)O)NC(=O)[C@H](CO)NC(=O)[C@@H](NC(=O)[C@H](Cc1ccccc1)NC(=O)[C@@H](NC(=O)CNC(=O)[C@H](CCC(=O)O)NC(=O)C(C)(C)NC(=O)[C@@H](N)Cc1ccc(O)cc1)[C@@H](C)O)[C@@H](C)O)[C@@H](C)CC)C(=O)N[C@@H](CC(=O)O)C(=O)N[C@@H](CO)C(=O)N[C@@H](CCCNC(=N)N)C(=O)N[C@@H](C)C(=O)N[C@@H](C)C(=O)N[C@@H](CCC(N)=O)C(=O)N[C@@H](CC(=O)O)C(=O)N[C@@H](Cc1ccccc1)C(=O)N[C@H](C(=O)N[C@@H](CCC(=O)O)C(=O)N[C@@H](Cc1c[nH]c2ccccc12)C(=O)N[C@@H](CC(C)C)C(=O)N[C@@H](CCCCN)C(=O)N[C@@H](C)C(=O)NCC(=O)NCC(=O)N1CCC[C@H]1C(=O)N[C@@H](CO)C(=O)N[C@@H](CO)C(=O)NCC(=O)N[C@@H](C)C(=O)N1CCC[C@H]1C(=O)N1CCC[C@H]1C(=O)N1CCC[C@H]1C(=O)N[C@@H](CO)C(N)=O)[C@@H](C)CC)C(=O)O
B6: SEQ ID NO: 23 (peptide)
peptide: Y[Aib]EGTFTSDLSIQK([γGlu-Palmitoyl])ESRAAQDFIEWLKNTGPSSGAPPPS-NH2
modifications: N-terminus assumed
SMILES: CCCCCCCCCCCCCCCC(=O)N[C@@H](CCC(=O)NCCCC[C@H](NC(=O)[C@H](CCC(N)=O)NC(=O)[C@@H](NC(=O)[C@H](CO)NC(=O)[C@H](CC(C)C)NC(=O)[C@H](CC(=O)O)NC(=O)[C@H](CO)NC(=O)[C@@H](NC(=O)[C@H](Cc1ccccc1)NC(=O)[C@@H](NC(=O)CNC(=O)[C@H](CCC(=O)O)NC(=O)C(C)(C)NC(=O)[C@@H](N)Cc1ccc(O)cc1)[C@@H](C)O)[C@@H](C)O)[C@@H](C)CC)C(=O)N[C@@H](CCC(=O)O)C(=O)N[C@@H](CO)C(=O)N[C@@H](CCCNC(=N)N)C(=O)N[C@@H](C)C(=O)N[C@@H](C)C(=O)N[C@@H](CCC(N)=O)C(=O)N[C@@H](CC(=O)O)C(=O)N[C@@H](Cc1ccccc1)C(=O)N[C@H](C(=O)N[C@@H](CCC(=O)O)C(=O)N[C@@H](Cc1c[nH]c2ccccc12)C(=O)N[C@@H](CC(C)C)C(=O)N[C@@H](CCCCN)C(=O)N[C@@H](CC(N)=O)C(=O)N[C@H](C(=O)NCC(=O)N1CCC[C@H]1C(=O)N[C@@H](CO)C(=O)N[C@@H](CO)C(=O)NCC(=O)N[C@@H](C)C(=O)N1CCC[C@H]1C(=O)N1CCC[C@H]1C(=O)N1CCC[C@H]1C(=O)N[C@@H](CO)C(N)=O)[C@@H](C)O)[C@@H](C)CC)C(=O)O

Assays:
Experiment in all cases: cell-based or functional assay
human GIP receptor = biological target: T1, human GIP receptor
human GLP-1 receptor = human GLP-1 receptor (human, UniProt P43220 24-463)
human glucagon receptor = human glucagon receptor (human, UniProt P47871 26-477)
Chain of human glucagon receptor (P47871 26-477): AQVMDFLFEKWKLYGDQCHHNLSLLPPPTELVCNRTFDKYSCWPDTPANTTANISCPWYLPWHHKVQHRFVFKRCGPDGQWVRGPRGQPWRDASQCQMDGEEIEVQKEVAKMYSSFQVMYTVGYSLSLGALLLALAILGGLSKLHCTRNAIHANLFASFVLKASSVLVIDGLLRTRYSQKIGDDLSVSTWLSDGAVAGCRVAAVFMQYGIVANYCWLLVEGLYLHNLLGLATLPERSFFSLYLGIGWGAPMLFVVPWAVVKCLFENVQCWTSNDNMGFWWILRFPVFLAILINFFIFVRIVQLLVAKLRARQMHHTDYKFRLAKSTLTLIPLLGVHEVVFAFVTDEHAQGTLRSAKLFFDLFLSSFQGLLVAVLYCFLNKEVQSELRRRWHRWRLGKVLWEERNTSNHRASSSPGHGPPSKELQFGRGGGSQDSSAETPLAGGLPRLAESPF

| Binder | EC50 hGIP R [pM] (human GIP receptor) | EC50 hGLP-1 R [pM] (human GLP-1 receptor) | EC50 hGLUC R [pM] (human glucagon receptor) |
| --- | --- | --- | --- |
| B1 | 9.6 pM | 8.7 pM | 9740 pM |
| B2 | 13.8 pM | 4 pM | 708 pM |
| B3 | 24.5 pM | 23.2 pM | 3310 pM |
| B4 | 6.4 pM | 4.8 pM | 10100 pM |
| B5 | 16.6 pM | 32 pM | 11600 pM |
| B6 | 79.5 pM | 11.8 pM | 19100 pM |
